Literature values, collected in paper PMC10368991.

Molecular target: LolB (Escherichia coli) (UniProt P61320)
Sequence (P61320 22-207): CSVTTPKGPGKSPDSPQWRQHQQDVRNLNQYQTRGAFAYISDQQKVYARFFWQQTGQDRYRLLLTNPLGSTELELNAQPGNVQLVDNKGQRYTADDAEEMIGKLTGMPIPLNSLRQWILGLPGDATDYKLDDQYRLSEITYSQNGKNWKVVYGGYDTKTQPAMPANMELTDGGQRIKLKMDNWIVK

LolA, sequence (P61316 22-203): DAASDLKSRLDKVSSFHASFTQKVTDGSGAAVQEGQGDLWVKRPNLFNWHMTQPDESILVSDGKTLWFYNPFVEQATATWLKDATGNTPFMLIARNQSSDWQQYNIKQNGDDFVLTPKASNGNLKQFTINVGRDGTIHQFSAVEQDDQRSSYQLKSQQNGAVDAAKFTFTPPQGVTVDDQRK

In the case of LolA (from UniProt P61316), the Kd is listed as 31.5 µM.
